Measured values reported in patent publication US20250382352A1 (SCG CELL THERAPY PTE, published 2025).
Positions count from the first letter of the chain named.

T1: HBsAg recombinant protein (hepatitis B virus)
T1 chain: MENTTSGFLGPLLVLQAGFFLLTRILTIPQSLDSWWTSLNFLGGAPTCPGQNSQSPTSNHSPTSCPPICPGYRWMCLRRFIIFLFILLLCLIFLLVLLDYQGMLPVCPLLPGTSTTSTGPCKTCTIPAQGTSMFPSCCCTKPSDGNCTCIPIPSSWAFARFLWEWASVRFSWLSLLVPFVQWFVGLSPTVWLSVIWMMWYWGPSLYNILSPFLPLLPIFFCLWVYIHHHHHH

B1: BsAb2-5-004 (bispecific antibody)
heavy: not shown
light: QTVVTQEPSFSVSPGGTVTLTCRSSTGAVTTSNYANWYQQTPGQAPRTLIGGTNKRAPGVPDRFSGSILGDKAALTITGAQADDESDYYCALWYSNLWVFGGGTKLTVLRTVAAPSVFIFPPSDEQLKSGTASVVCLLNNFYPREAKVQWKVDNALQSGNSQESVTEQDSKDSTYSLSSTLTLSKADYEKHKVYACEVTHQGLSSPVTKSFNRGEC
notes: also called VH1VL4
B2: BsAb2-6-005 (bispecific antibody)
heavy: not shown
light: B1 light with Y38V, T48G
notes: also called VH1VL5
B3: BsAb2-5-030 (bispecific antibody)
heavy: not shown
light: B1 light with Y38V, T48G
notes: also called VH6VL5
B4: BsAb2-5-025 (bispecific antibody)
heavy: not shown
light: B1 light with Y38V, T48G
notes: also called VH5VL5
B5: BsAb2-6-024 (bispecific antibody)
heavy: not shown
light: B1 light
notes: also called VH5VL4
B6: BsAb2-5-020 (bispecific antibody)
heavy: not shown
light: B1 light with Y38V, T48G
notes: also called VH4VL5
B7: BsAb2-6-014 (bispecific antibody)
heavy: not shown
light: B1 light
notes: also called VH3VL4
B8: BsAb2-5-005 (bispecific antibody)
heavy: not shown
light: B1 light with Y38V, T48G
notes: also called VH1VL5
B9: BsAb2-5-014 (bispecific antibody)
heavy: not shown
light: B1 light
notes: also called VH3VL4
B10: BsAb2-5-015 (bispecific antibody)
heavy: not shown
light: B1 light with Y38V, T48G
notes: also called VH3VL5
B11: BsAb2-6-025 (bispecific antibody)
heavy: not shown
light: B1 light with Y38V, T48G
notes: also called VH5VL5
B12: BsAb2-6-004 (bispecific antibody)
heavy: not shown
light: B1 light
notes: also called VH1VL4
B13: BsAb2-6-009 (bispecific antibody)
heavy: not shown
light: B1 light
notes: also called VH2VL4
B14: BsAb2-6-010 (bispecific antibody)
heavy: not shown
light: B1 light with Y38V, T48G
notes: also called VH2VL5
B15: BsAb2-6-019 (bispecific antibody)
heavy: not shown
light: B1 light
notes: also called VH4VL4 (printed VH4VLA)
B16: BsAb2-6-030 (bispecific antibody)
heavy: not shown
light: B1 light with Y38V, T48G
notes: also called VH6VL5
B17: BsAb2-6-029 (bispecific antibody)
heavy: not shown
light: B1 light
notes: also called VH6VL4 (printed VH6VLA)
B18: BsAb2-5-001 (bispecific antibody)
heavy: not shown
light: QTVVTQEPSLTVSPGGTVTLTCRSSTGAVTTSNYANWVQQKPGQAPRALIGGTNKRAPWTPARFSGSLLGDKAALTLSGVQPEDEAEYYCALWYSNLWVFGGGTKLTVLRTVAAPSVFIFPPSDEQLKSGTASVVCLLNNFYPREAKVQWKVDNALQSGNSQESVTEQDSKDSTYSLSSTLTLSKADYEKHKVYACEVTHQGLSSPVTKSFNRGEC
notes: also called VH1VL1
B19: BsAb2-5-002 (bispecific antibody)
heavy: not shown
light: B18 light with A48G, W59G
notes: also called VH1VL2
B20: BsAb2-6-002 (bispecific antibody)
heavy: not shown
light: B18 light with A48G, W59G
notes: also called VH1VL2
B21: BsAb2-6-008 (bispecific antibody)
heavy: not shown
light: B18 light with T2A, A48G, W59G, Y89F
notes: also called VH2VL3
B22: BsAb2-5-022 (bispecific antibody)
heavy: not shown
light: B18 light with A48G, W59G
notes: also called VH5VL2
B23: BsAb2-5-026 (bispecific antibody)
heavy: not shown
light: B18 light
notes: also called VH6VL1
B24: BsAb2-6-003 (bispecific antibody)
heavy: not shown
light: B18 light with T2A, A48G, W59G, Y89F
notes: also called VH1VL3
B25: BsAb2-5-007 (bispecific antibody)
heavy: not shown
light: B18 light with A48G, W59G
notes: also called VH2VL2
B26: BsAb2-5-027 (bispecific antibody)
heavy: not shown
light: B18 light with A48G, W59G
notes: also called VH6VL2
B27: BsAb2-5-003 (bispecific antibody)
heavy: not shown
light: B18 light with T2A, A48G, W59G, Y89F
notes: also called VH1VL3
B28: BsAb2-6-012 (bispecific antibody)
heavy: not shown
light: B18 light with A48G, W59G
notes: also called VH3VL2
B29: BsAb2-5-008 (bispecific antibody)
heavy: not shown
light: B18 light with T2A, A48G, W59G, Y89F
notes: also called VH2VL3
B30: BsAb2-6-022 (bispecific antibody)
heavy: not shown
light: B18 light with A48G, W59G
notes: also called VH5VL2
B31: BsAb2-5-006 (bispecific antibody)
heavy: not shown
light: B18 light
notes: also called VH2VL1
B32: BsAb2-6-013 (bispecific antibody)
heavy: not shown
light: B18 light with T2A, A48G, W59G, Y89F
notes: also called VH3VL3
B33: BsAb2-6-007 (bispecific antibody)
heavy: not shown
light: B18 light with A48G, W59G
notes: also called VH2VL2
B34: BsAb2-5-021 (bispecific antibody)
heavy: not shown
light: B18 light
notes: also called VH5VL1
B35: BsAb2-6-027 (bispecific antibody)
heavy: not shown
light: B18 light with A48G, W59G
notes: also called VH6VL2
B36: BsAb2-5-023 (bispecific antibody)
heavy: not shown
light: B18 light with T2A, A48G, W59G, Y89F
notes: also called VH5VL3
B37: BsAb2-6-023 (bispecific antibody)
heavy: not shown
light: B18 light with T2A, A48G, W59G, Y89F
notes: also called VH5VL3
B38: BsAb2-6-028 (bispecific antibody)
heavy: not shown
light: B18 light with T2A, A48G, W59G, Y89F
notes: also called VH6VL3
B39: BsAb2-5-028 (bispecific antibody)
heavy: not shown
light: B18 light with T2A, A48G, W59G, Y89F
notes: also called VH6VL3

Target: T1, HBsAg recombinant protein
Assay: ELISA, recombinant protein
Method: (§1) Anti-HBsAg/anti-CD3 bispecific antibodies generated in Example 1 are analyzed by standard ELISA techniques for their binding properties to HBsAg, human CD3E, and rhesus CD3ε recombinant protein, respectively.

Row | Binder | EC50 [nM]
1 | B1 | 0.36
2 | B2 | 0.45
3 | B3 | 0.15
4 | B4 | 0.2
5 | B5 | 0.51
6 | B6 | 0.16
7 | B7 | 0.31
8 | B8 | 0.15
9 | B9 | 0.2
10 | B10 | 0.17
11 | B11 | 1.5
12 | B12 | 0.43
13 | B13 | 0.45
14 | B14 | 0.46
15 | B15 | 0.53
16 | B16 | 0.48
17 | B17 | 0.48
18 | B18 | 0.23
19 | B19 | 0.16
20 | B20 | 0.46

Row | Binder | EC50 [nM]
21 | B21 | 0.57
22 | B22 | 0.16
23 | B23 | 0.18
24 | B24 | 0.47
25 | B25 | 0.23
26 | B26 | 0.16
27 | B27 | 0.21
28 | B28 | 0.45
29 | B29 | 0.19
30 | B30 | 0.77
31 | B31 | 0.9
32 | B32 | 0.47
33 | B33 | 0.42
34 | B34 | 0.14
35 | B35 | 0.72
36 | B36 | 0.18
37 | B37 | 1.09
38 | B38 | 0.83
39 | B39 | 0.19

target: T2, human CD3ε recombinant protein (human, UniProt P07766 23-126); assay: ELISA, recombinant protein
T2 construct: also called human CD3E; huCD3ε
Method: as §1

T2 sequence (P07766 23-126 limits assumed): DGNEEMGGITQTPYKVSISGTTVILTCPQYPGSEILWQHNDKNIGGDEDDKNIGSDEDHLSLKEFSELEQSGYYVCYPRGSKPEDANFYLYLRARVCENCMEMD

Row | Binder | EC50 [nM]
40 | B6 | 0.28
41 | B10 | 0.27
42 | B28 | 0.32
43 | B32 | 0.33

target: T3, rhesus CD3ε recombinant protein (rhesus); assay: ELISA, recombinant protein
T3 construct: also called rhesus CD38 [sic]
Method: as §1

Row | Binder | EC50 [nM]
44 | B2 | 0.18
45 | B3 | 0.23
46 | B4 | 0.25
47 | B6 | 0.26
48 | B8 | 0.31
49 | B10 | 0.27
50 | B11 | 0.5
51 | B14 | 0.23
52 | B16 | 0.13
53 | B18 | 0.72
54 | B19 | 0.3
55 | B20 | 0.14
56 | B21 | 0.28
57 | B22 | 0.31
58 | B23 | 2.09
59 | B24 | 0.17

Row | Binder | EC50 [nM]
60 | B25 | 0.4
61 | B26 | 0.28
62 | B27 | 0.34
63 | B28 | 0.24
64 | B29 | 0.24
65 | B30 | 0.23
66 | B31 | 2.12
67 | B32 | 0.26
68 | B33 | 0.19
69 | B34 | 3.88
70 | B35 | 0.21
71 | B36 | 0.22
72 | B37 | 0.26
73 | B38 | 0.21
74 | B39 | 0.31
